Measurements as given in article PMC5818509, “Crystal structure of the hydroxylaminopurine resistance protein, YiiM, and its putative molybdenum cofactor-binding catalytic site” (Scientific Reports, 2018).

Molecular target: the molecule itself
Assay: SEC; gel filtration, Superdex 200 10/300, room temperature, 20 mM Tris pH 8.0, 150 mM NaCl, 5 mM β-mercaptoethanol; BL21-expressed and TP1000-expressed proteins

B1: Escherichia coli YiiM (natural protein)
chain: MRYPVDVYTGKIQAYPEGKPSAIAKIQVDGELMLTELGLEGDEQAEKKVHGGPDRALCHYPREHYLYWAREFPEQAELFVAPAFGENLSTDGLTESNVYMGDIFRWGEALIQVSQPRSPCYKLNYHFDISDIAQLMQNTGKVGWLYSVIAPGKVSADAPLELVSRVSDVTVQEAAAIAWHMPFDDDQYHRLLSAAGLSKSWTRTMQKRRLSGKIEDFSRRLWGK
notes: YiiM, a MOSC family protein of Escherichia coli; gene amplified by PCR from E. coli genomic DNA; calculated molecular weight 25.9 kDa; The BL21- and the TP1000-expressed protein are written as one molecule (both behaved alike); the crystal was grown from the TP1000-expressed protein; also called ecYiiM; ecYiiM^Pi (phosphate complex in the crystal); source: E. coli BL21 (DE3) (pET49b) and E. coli …
With B1 the “stoichiometry N” value was 2.
